Assays:
Conditions in all cases: protein: recombinant; tags: MBP (pMAL-cRI); only one strand given
[1] = target: TCF7L2 HMG box Y337S (MBP fusion) (UniProt Q924A0 327-395, Y337S); test: EMSA; 50 mM NaCl, 20 mM Tris-HCl (pH not stated), 1 mM DTT, 1 mM MgCl2, 5% glycerol, 1 h at 25 C; 6% native PAGE
[2] = target: TCF7L2 HMG box Y337E (MBP fusion) (UniProt Q924A0 327-395, Y337E); test: as above
[3] = target: TCF7L2 HMG box Y337H (MBP fusion) (UniProt Q924A0 327-395, Y337H); test: as above
[4] = target: TCF7L2 HMG box WT (MBP fusion) (UniProt Q924A0 327-395); test: EMSA; dose-dependent; 50 mM NaCl, 20 mM Tris-HCl (pH not stated), 1 mM DTT, 1 mM MgCl2, 5% glycerol, 1 h at 25 C; 6% native PAGE
[5] = target: TCF7L2 HMG box Y337F (MBP fusion) (UniProt Q924A0 327-395, Y337F); test: EMSA; binding largely retained; 50 mM NaCl, 20 mM Tris-HCl (pH not stated), 1 mM DTT, 1 mM MgCl2, 5% glycerol, 1 h at 25 C; 6% native PAGE
TCF7L2 HMG box Y337F (MBP fusion), sequence (Q924A0 327-395 Y337F): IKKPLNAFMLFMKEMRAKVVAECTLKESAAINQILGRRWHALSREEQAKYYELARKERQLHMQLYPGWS

TCF7L2 HMG box Y337H (MBP fusion), sequence (Q924A0 327-395 Y337H): as the sequence (Q924A0 327-395 Y337F) above, with F11H counted along it
TCF7L2 HMG box Y337E (MBP fusion), sequence (Q924A0 327-395 Y337E): as the sequence (Q924A0 327-395 Y337F) above, with F11E counted along it
TCF7L2 HMG box WT (MBP fusion), sequence (Q924A0 327-395): as the sequence (Q924A0 327-395 Y337F) above, with F11Y counted along it
TCF7L2 HMG box Y337S (MBP fusion), sequence (Q924A0 327-395 Y337S): as the sequence (Q924A0 327-395 Y337F) above, with F11S counted along it

B1: HMG-binding sequence probe (dsDNA)
DNA 1: TAGACGTAGGGCACCCTTTGAAGCTCTCCCTCGA
DNA 2: TCGAGGGAGAGCTTCAAAGGGTGCCCTACGTCTA
B1: no binding [1]; no binding [2]; no binding [3]. B1: binds [4]; binds [5].

Source: paper PMC10208975, “TCF7L2 acts as a molecular switch in midbrain to control mammal vocalization through its DNA binding domain but not transcription activation domain”
